Values joined by “and” are separate entries in the source; they are usually repeats but may differ in a detail not shown here. Identical values can stand only once.
[1] = Oryctolagus cuniculus, pH 7, Thermal, DSC, Glycerol 20 % v/v, KCl 100 mM, reversible: no, whole UniProt chain shown
[2] = Escherichia coli (strain K12), pH 7.2, 51.8 °C, Thermal, DSC, HEPES 0.05 mM, structure 1ANK
[3] = Escherichia coli (strain K12), pH 7.2, Thermal, DSC, HEPES 0.05 mM, structure 1ANK
[4] = Escherichia coli (strain K12), pH 7.4, Thermal, DSC, HEPES 50 mM, structure 1ANK
[5] = Escherichia coli (strain K12), pH 7.2, Thermal, DSC, HEPES 0.05 mM
[6] = Escherichia coli (strain K12), pH 7.4, Thermal, DSC, HEPES 50 mM
[7] = Methanobacterium formicicum, pH 7.2, 25 °C, GdnHCl, CD, potasssium phosphate 20 mM, KCl 200 mM, reversible: yes
[8] = Escherichia coli (strain K12), pH 7, 10 °C, Urea, CD, Potassium phosphate 50 mM, KCl 100 mM
[9] = Escherichia coli (strain K12), pH 7, 25 °C, GdnHCl, Fluorescence, potassium phosphate 50 mM, KCl 100 M, reversible: yes
[10] = Escherichia coli (strain K12), pH 7, 25 °C, Urea, CD, Potassium phosphate 50 mM, KCl 100 mM
[11] = Escherichia coli (strain K12), pH 7, 25 °C, Urea, Fluorescence, potassium phosphate 50 mM, KCl 100 mM, reversible: yes
[12] = Gallus gallus, pH 7, 25 °C, NaClO4 titration, CD, PIPES 10 mM, NaCl 50 mM, reversible: no
[13] = Saccharomyces cerevisiae (strain ATCC 204508 / S288c), pH 6, 46.5 °C, Thermal, Absorbance, Sodium phosphate 100 mM, reversible: yes, structure 1YCC
[14] = Saccharomyces cerevisiae (strain ATCC 204508 / S288c), pH 6, Thermal, Absorbance, Sodium phosphate 100 mM, reversible: yes, structure 1YCC
[15] = Saccharomyces cerevisiae (strain ATCC 204508 / S288c), pH 7.5, 22 °C, GdnHCl, CD, Tris 20 mM, NaCl 40 mM, structure 1YCC
[16] = Saccharomyces cerevisiae (strain ATCC 204508 / S288c), pH 4.6, 37 °C, Thermal, DSC, Potassium acetate 0.1 M, reversible: yes, structure 1YCC
[17] = Saccharomyces cerevisiae (strain ATCC 204508 / S288c), pH 6, 20 °C, GdnHCl, Fluorescence, Sodium phosphate 0.1 M, reversible: yes, structure 1YCC
[18] = Saccharomyces cerevisiae (strain ATCC 204508 / S288c), pH 6, 20 °C, GdnHCl, Fluorescence, Sodium phosphate 0.1 M, reversible: yes
[19] = Saccharomyces cerevisiae (strain ATCC 204508 / S288c), pH 7, 25 °C, GdnHCl, CD, Tris 20 mM, NaCl 40 mM, reversible: yes
[20] = Saccharomyces cerevisiae (strain ATCC 204508 / S288c), pH 7.5, 22 °C, GdnHCl, CD, Tris 20 mM, NaCl 40 mM
[21] = Homo sapiens, pH 7.4, Thermal, CD, phosphate 10 mM, NaCl 10 mM, transition: 2, structure 2NLU
[22] = Homo sapiens, pH 7.5, Thermal, DSF, Hepes 25mM, NaCl 150mM, structure 6DLO
[23] = Homo sapiens, pH 7.5, Thermal, CD, HEPES 0.8mM, NaCl 6mM, transition: 2, structure 6EW2
[24] = Cyprinus carpio, pH 7.5, Thermal, CD, Sodium phosphate 10 mM, CaCl2 0.00001 M

Sequence of Cytochrome c isoform 1 G35S|N58I, P00044 G35S N58I (P00044 whole entry G35S/N58I, canonical isoform): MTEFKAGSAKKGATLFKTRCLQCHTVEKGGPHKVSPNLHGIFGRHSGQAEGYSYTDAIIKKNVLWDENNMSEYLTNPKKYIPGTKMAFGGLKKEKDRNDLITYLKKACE
Sequence of Cytochrome c isoform 1 N58I, P00044 (P00044 whole entry N58I, canonical isoform): as the sequence (P00044 whole entry G35S/N58I, canonical isoform) above, with S35G counted along it
Sequence of Cytochrome c isoform 1 P77T, P00044 (P00044 whole entry P77T, canonical isoform): as the sequence (P00044 whole entry G35S/N58I, canonical isoform) above, with S35G, I58N, P77T counted along it
Sequence of Cytochrome c isoform 1 P77I, P00044 (P00044 whole entry P77I, canonical isoform): as the sequence (P00044 whole entry G35S/N58I, canonical isoform) above, with S35G, I58N, P77I counted along it
Sequence of Adenylate kinase wild type, P69441 (P69441 whole entry): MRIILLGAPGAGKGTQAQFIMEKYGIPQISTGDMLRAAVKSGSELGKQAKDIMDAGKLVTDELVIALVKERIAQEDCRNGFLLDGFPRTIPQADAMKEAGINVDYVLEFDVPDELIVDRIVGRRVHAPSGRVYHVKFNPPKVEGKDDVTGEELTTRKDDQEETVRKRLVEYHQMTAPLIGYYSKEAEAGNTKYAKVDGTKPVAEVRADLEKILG
Sequence of Cytochrome c isoform 1 H32N|H39N|H45Q|C108S, P00044 H32N H39N H45Q C108S (P00044 whole entry H32N/H39N/H45Q/C108S, canonical isoform): as the sequence (P00044 whole entry G35S/N58I, canonical isoform) above, with H32N, S35G, H39N, H45Q, I58N, C108S counted along it
Sequence of Parvalbumin beta wild type, P02618 (P02618 whole entry): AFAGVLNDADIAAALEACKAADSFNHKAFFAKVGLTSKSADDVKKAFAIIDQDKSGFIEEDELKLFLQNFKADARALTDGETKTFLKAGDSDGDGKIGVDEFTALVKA
Sequence of Cold shock protein CspA wild type, P0A9X9 (P0A9X9 whole entry): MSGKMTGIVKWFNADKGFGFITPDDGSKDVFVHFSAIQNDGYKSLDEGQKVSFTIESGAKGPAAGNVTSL
Sequence of Cytochrome c isoform 1 N58I|C108A, P00044 N58I C108A (P00044 whole entry N58I/C108A, canonical isoform): as the sequence (P00044 whole entry G35S/N58I, canonical isoform) above, with S35G, C108A counted along it
Sequence of Cytochrome c isoform 1 C108S, P00044 (P00044 whole entry C108S, canonical isoform): as the sequence (P00044 whole entry G35S/N58I, canonical isoform) above, with S35G, I58N, C108S counted along it
Sequence of Cytochrome c isoform 1 H39P|N58I, P00044 H39P N58I (P00044 whole entry H39P/N58I, canonical isoform): as the sequence (P00044 whole entry G35S/N58I, canonical isoform) above, with S35G, H39P counted along it
Sequence of Cytochrome c isoform 1 C108A, P00044 (P00044 whole entry C108A, canonical isoform): as the sequence (P00044 whole entry G35S/N58I, canonical isoform) above, with S35G, I58N, C108A counted along it
Sequence of Cytochrome c isoform 1 wild type, P00044 (P00044 whole entry, canonical isoform): as the sequence (P00044 whole entry G35S/N58I, canonical isoform) above, with S35G, I58N counted along it
Sequence of Archaeal histone B wild type, P48784 (P48784 whole entry): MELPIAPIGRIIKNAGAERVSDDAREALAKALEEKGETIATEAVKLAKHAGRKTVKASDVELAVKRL
Sequence of Cytochrome c isoform 1 N58G|C108A, P00044 N58G C108A (P00044 whole entry N58G/C108A, canonical isoform): as the sequence (P00044 whole entry G35S/N58I, canonical isoform) above, with S35G, I58G, C108A counted along it
Sequence of Cytochrome c V93A|S104A, P67881 V93A S104A (P67881 whole entry V93A/S104A): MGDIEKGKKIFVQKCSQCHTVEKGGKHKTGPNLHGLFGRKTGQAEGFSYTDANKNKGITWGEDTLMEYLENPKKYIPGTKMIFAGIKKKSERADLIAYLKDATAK
Sequence of Cytochrome c V93A, P67881 (P67881 whole entry V93A): as the sequence (P67881 whole entry V93A/S104A) above, with A104S counted along it
Sequence of Endo-1,4-beta-xylanase wild type, Q56013 (Q56013 entry or part of it): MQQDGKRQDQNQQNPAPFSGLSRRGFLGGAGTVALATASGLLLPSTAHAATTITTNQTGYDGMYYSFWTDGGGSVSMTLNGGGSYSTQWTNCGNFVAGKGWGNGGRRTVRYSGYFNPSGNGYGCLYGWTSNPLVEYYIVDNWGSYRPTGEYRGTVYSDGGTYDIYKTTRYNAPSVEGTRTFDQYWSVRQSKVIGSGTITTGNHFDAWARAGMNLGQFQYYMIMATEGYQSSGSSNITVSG
Sequence of Hepatoma-derived growth factor P24A, P51858 (P51858 whole entry P24A): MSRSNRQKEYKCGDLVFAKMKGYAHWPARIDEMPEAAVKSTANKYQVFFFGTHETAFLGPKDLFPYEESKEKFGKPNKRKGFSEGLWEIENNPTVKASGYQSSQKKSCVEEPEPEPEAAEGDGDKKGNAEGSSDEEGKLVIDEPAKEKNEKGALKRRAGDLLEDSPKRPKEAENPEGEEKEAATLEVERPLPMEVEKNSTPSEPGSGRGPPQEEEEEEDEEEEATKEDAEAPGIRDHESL
Sequence of Creatine kinase B-type wild type, P12277 (P12277 whole entry): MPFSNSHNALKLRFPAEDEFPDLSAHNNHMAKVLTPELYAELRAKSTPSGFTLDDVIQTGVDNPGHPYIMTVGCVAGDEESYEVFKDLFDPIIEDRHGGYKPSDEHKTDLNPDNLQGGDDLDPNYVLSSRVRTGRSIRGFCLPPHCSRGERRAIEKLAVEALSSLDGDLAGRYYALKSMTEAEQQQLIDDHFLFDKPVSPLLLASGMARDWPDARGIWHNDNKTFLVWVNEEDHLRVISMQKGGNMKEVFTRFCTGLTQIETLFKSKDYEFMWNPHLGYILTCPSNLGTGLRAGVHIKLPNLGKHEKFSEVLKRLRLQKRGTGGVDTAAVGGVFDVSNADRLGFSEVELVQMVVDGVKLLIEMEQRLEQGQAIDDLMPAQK
Sequence of Cytochrome c wild type, P67881 (P67881 whole entry): as the sequence (P67881 whole entry V93A/S104A) above, with A93V, A104S counted along it
Sequence of Cytochrome c wild type, P00041 (P00041 whole entry): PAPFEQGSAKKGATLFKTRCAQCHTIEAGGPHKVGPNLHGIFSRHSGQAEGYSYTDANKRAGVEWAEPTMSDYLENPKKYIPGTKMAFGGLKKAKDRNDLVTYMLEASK
Sequence of Hepatoma-derived growth factor wild type, P51858 (P51858 whole entry): as the sequence (P51858 whole entry P24A) above, with A24P counted along it

## AKKVLPLLLPPLVXAALGLAXF [wild type]
[1]
  Tm: 42.3 °C
  unfolding enthalpy (calorimetric): 300 kcal/mol

## APRLPQCQGDDQEKCLCNKDECPPGQCRFPRGDADPYCE [Decorsin wild type]
Macrobdella decora, pH 7, Thermal, CD, Na2HPO4 10 mM, reversible: Yes, whole UniProt chain shown
  Tm: 74 °C

## Adenylate kinase D84H, P69441
[2]
  ddG of mutation (higher = less stable): 1.4 kcal/mol
[3]
  Tm: 44.6 °C
  change of melting temperature, mutant - wild type (higher = more stable): -7.2 °C
  unfolding enthalpy (calorimetric): 63 kcal/mol

## Adenylate kinase F86L, P69441
[2]
  ddG of mutation (higher = less stable): 0.8 kcal/mol
[3]
  Tm: 49.2 °C
  change of melting temperature, mutant - wild type (higher = more stable): -2.6 °C
  unfolding enthalpy (calorimetric): 97 kcal/mol

## Adenylate kinase G85V, P69441
[2]
  ddG of mutation (higher = less stable): 2.4 kcal/mol
[3]
  Tm: 40.7 °C
  change of melting temperature, mutant - wild type (higher = more stable): -11.1 °C
  unfolding enthalpy (calorimetric): 70 kcal/mol

## Adenylate kinase R88G, P69441
Escherichia coli (strain K12), pH 7.4, 51.8 °C, Thermal, DSC, HEPES 50 mM, structure 1ANK
  ddG of mutation (higher = less stable): 0.2 kcal/mol
[4]
  Tm: 51 °C
  change of melting temperature, mutant - wild type (higher = more stable): -0.8 °C
  unfolding enthalpy (calorimetric): 75 kcal/mol
  unfolding enthalpy (van 't Hoff): 161 kcal/mol

## Adenylate kinase wild type, P69441
[5]
  Tm: 51.8 °C
  unfolding enthalpy (calorimetric): 95 kcal/mol
[6]
  Tm: 51.8 °C
  unfolding enthalpy (calorimetric): 95 kcal/mol
  unfolding enthalpy (van 't Hoff): 158 kcal/mol

## Archaeal histone B wild type, P48784
[7]
  denaturant m value: 3.4 kcal/mol/M
  unfolding free energy: 5.7 kcal/mol and 10.8 kcal/mol

## Cold shock protein CspA wild type, P0A9X9
[8]
  denaturant m value: 0.59 kcal/mol/M
  denaturant midpoint (higher = more stable): 4.95 M
  unfolding free energy: 2.92 kcal/mol
[9]
  denaturant m value: 2.2 kcal/mol/M
  denaturant midpoint (higher = more stable): 1.4 M
  unfolding free energy: 3.1 kcal/mol
[10]
  denaturant m value: 0.71 kcal/mol/M
  denaturant midpoint (higher = more stable): 4.2 M
  unfolding free energy: 3 kcal/mol
[11]
  denaturant m value: 0.71 kcal/mol/M
  denaturant midpoint (higher = more stable): 4.2 M
  unfolding free energy: 3 kcal/mol
Escherichia coli (strain K12), pH 7, Thermal, CD, potassium phosphate 50 mM, KCl 100 M, reversible: yes
  Tm: 59 °C

## Creatine kinase B-type wild type, P12277
Homo sapiens, pH 8, Thermal, CD, Tris-HCl, transition: 2, reversible: No
  Tm: 47.3 °C
Homo sapiens, pH 8, Thermal, Fluorescence, Tris-HCl, transition: 2, reversible: No
  Tm: 45.7 °C

## Cytochrome c V93A, P67881
[12]
  ddG of mutation (higher = less stable): 0.26 kcal/mol
  unfolding free energy: 4.91 kcal/mol

## Cytochrome c V93A|S104A, P67881 V93A S104A
[12]
  ddG of mutation (higher = less stable): 0.26 kcal/mol
  unfolding free energy: 4.91 kcal/mol

## Cytochrome c isoform 1 C108A, P00044
[13]
  ddG of mutation (higher = less stable): -2.9 kcal/mol
  heat capacity change of unfolding: 2 kcal/mol/K
[14]
  Tm: 58.1 °C
  change of melting temperature, mutant - wild type (higher = more stable): 11.6 °C
  heat capacity change of unfolding: 2 kcal/mol/K
  unfolding enthalpy (van 't Hoff): 89 kcal/mol

## Cytochrome c isoform 1 C108S, P00044
[13]
  ddG of mutation (higher = less stable): -2.8 kcal/mol
  heat capacity change of unfolding: 2 kcal/mol/K
[14]
  Tm: 57.8 °C
  change of melting temperature, mutant - wild type (higher = more stable): 11.3 °C
  heat capacity change of unfolding: 2 kcal/mol/K
  unfolding enthalpy (van 't Hoff): 87 kcal/mol

## Cytochrome c isoform 1 G35S|N58I, P00044 G35S N58I
[13]
  ddG of mutation (higher = less stable): 1.5 kcal/mol
  heat capacity change of unfolding: 2 kcal/mol/K
[14]
  Tm: 40.3 °C
  change of melting temperature, mutant - wild type (higher = more stable): -6.2 °C
  heat capacity change of unfolding: 2 kcal/mol/K
  unfolding enthalpy (van 't Hoff): 58 kcal/mol

## Cytochrome c isoform 1 H32N|H39N|H45Q|C108S, P00044 H32N H39N H45Q C108S
[15]
  ddG of mutation (higher = less stable): 1.05 kcal/mol
  denaturant m value: 3.83 kcal/mol/M
  denaturant midpoint (higher = more stable): 1.04 M
  unfolding free energy: 4 kcal/mol

## Cytochrome c isoform 1 H39P|N58I, P00044 H39P N58I
[13]
  ddG of mutation (higher = less stable): 0.8 kcal/mol
  heat capacity change of unfolding: 2 kcal/mol/K
[14]
  Tm: 43.1 °C
  change of melting temperature, mutant - wild type (higher = more stable): -3.4 °C
  heat capacity change of unfolding: 2 kcal/mol/K
  unfolding enthalpy (van 't Hoff): 61 kcal/mol

## Cytochrome c isoform 1 N58G|C108A, P00044 N58G C108A
[13]
  ddG of mutation (higher = less stable): -0.9 kcal/mol
  heat capacity change of unfolding: 2 kcal/mol/K
[14]
  Tm: 50.1 °C
  change of melting temperature, mutant - wild type (higher = more stable): 3.6 °C
  heat capacity change of unfolding: 2 kcal/mol/K
  unfolding enthalpy (van 't Hoff): 50 kcal/mol

## Cytochrome c isoform 1 N58I, P00044
Saccharomyces cerevisiae (strain ATCC 204508 / S288c), pH 4.6, 27 °C, GdnHCl, CD, Sodium acetate 50 mM, reversible: yes, structure 1YCC
  unfolding free energy: 6.8 kcal/mol and 18 kcal/mol
[16]
  ddG of mutation (higher = less stable): -3.14 kcal/mol
  unfolding free energy: 7.17 kcal/mol
[13]
  ddG of mutation (higher = less stable): -4.3 kcal/mol
  heat capacity change of unfolding: 2 kcal/mol/K

## Cytochrome c isoform 1 N58I|C108A, P00044 N58I C108A
[13]
  ddG of mutation (higher = less stable): -6.2 kcal/mol
  heat capacity change of unfolding: 2 kcal/mol/K
[14]
  Tm: 71.5 °C
  change of melting temperature, mutant - wild type (higher = more stable): 25 °C
  heat capacity change of unfolding: 2 kcal/mol/K
  unfolding enthalpy (van 't Hoff): 115 kcal/mol

## Cytochrome c isoform 1 P77I, P00044
[17]
  ddG of mutation (higher = less stable): 1.7 kcal/mol
  denaturant midpoint (higher = more stable): 0.72 M
  unfolding free energy: 1.9 kcal/mol

## Cytochrome c isoform 1 P77T, P00044
[17]
  ddG of mutation (higher = less stable): 1.7 kcal/mol
  denaturant midpoint (higher = more stable): 0.72 M
  unfolding free energy: 1.9 kcal/mol

## Cytochrome c isoform 1 wild type, P00044
Saccharomyces cerevisiae (strain ATCC 204508 / S288c), pH 4.6, 25 °C, Thermal, Absorbance, Sodium acetate 100 mM, reversible: yes
  unfolding free energy: 5.3 kcal/mol
Saccharomyces cerevisiae (strain ATCC 204508 / S288c), pH 4.6, 25 °C, Thermal, CD, Sodium acetate 100 mM, reversible: yes
  unfolding free energy: 5.3 kcal/mol
Saccharomyces cerevisiae (strain ATCC 204508 / S288c), pH 4.6, 27 °C, GdnHCl, CD, Sodium acetate 50 mM, reversible: yes
  unfolding free energy: 5.6 kcal/mol and 15 kcal/mol
[18]
  denaturant midpoint (higher = more stable): 1.07 M
  unfolding free energy: 3.6 kcal/mol
Saccharomyces cerevisiae (strain ATCC 204508 / S288c), pH 6, 25 °C, Thermal, Absorbance, Sodium phosphate 100 mM, reversible: yes
  unfolding free energy: 3.8 kcal/mol
[19]
  denaturant m value: 3.71 kcal/mol/M
  denaturant midpoint (higher = more stable): 1.06 M
  unfolding free energy: 3.93 kcal/mol
[20]
  denaturant m value: 4.24 kcal/mol/M
  denaturant midpoint (higher = more stable): 1.19 M
  unfolding free energy: 5.05 kcal/mol

## Cytochrome c wild type, P00041
Pichia kudriavzevii, pH 6.5, 25 °C, GdnHCl, CD, HCl 0.1 M, reversible: yes
  unfolding free energy: 14 kcal/mol

## Cytochrome c wild type, P67881
[12]
  unfolding free energy: 5.17 kcal/mol

## Endo-1,4-beta-xylanase wild type, Q56013
Streptomyces sp. EC3, pH 6, Thermal, CD, Sodium phosphate 25 mM, reversible: no
  Tm: 56.8 °C
Streptomyces sp. EC3, pH 6, Thermal, Fluorescence, Sodium phosphate 25 mM, reversible: no
  Tm: 61.1 °C

## Hepatoma-derived growth factor P24A, P51858
[21]
  Tm: 40 °C
  change of melting temperature, mutant - wild type (higher = more stable): -7 °C

## Hepatoma-derived growth factor wild type, P51858
Homo sapiens, pH 7.4, Thermal, CD, phosphate 10 mM, NaCl 10 mM, transition: 2
  Tm: 47 °C

## Leucine-rich repeat serine/threonine-protein kinase 2, Q5S007 G2385R
[22]
  Tm: 31.3 °C
  change of melting temperature, mutant - wild type (higher = more stable): 0.33 °C

## Myelin P2 protein (from UniProt P02689) I52T
[23]
  change of melting temperature, mutant - wild type (higher = more stable): -13 °C
  ddG of mutation (higher = less stable): 5.17 kcal/mol

## Myelin P2 protein (from UniProt P02689) T51P
[23]
  change of melting temperature, mutant - wild type (higher = more stable): -24 °C
  ddG of mutation (higher = less stable): 1.51 kcal/mol

## Parvalbumin beta wild type, P02618
[24]
  Tm: 90 °C
  heat capacity change of unfolding: 1.1 kcal/mol/K
  unfolding enthalpy (calorimetric): 120 kcal/mol
Cyprinus carpio, pH 7.5, Thermal, CD, Sodium phosphate 10 mM, EDTA 5 mM
  Tm: 32 °C
Cyprinus carpio, pH 7.5, Thermal, CD, Sodium phosphate 10 mM, NaCl 2 M
  Tm: 55 °C
